Results taken from patent publication US20190338009A1 (ZEALAND PHARMA A S, published 2019).
Square brackets hold non-standard residues; d marks the D form. Aib = CC(C)(N)C(=O)O

T1: human GLP-2 receptor (hGLP2-R) (human, UniProt O95838 1-553)
T1 sequence (looked up): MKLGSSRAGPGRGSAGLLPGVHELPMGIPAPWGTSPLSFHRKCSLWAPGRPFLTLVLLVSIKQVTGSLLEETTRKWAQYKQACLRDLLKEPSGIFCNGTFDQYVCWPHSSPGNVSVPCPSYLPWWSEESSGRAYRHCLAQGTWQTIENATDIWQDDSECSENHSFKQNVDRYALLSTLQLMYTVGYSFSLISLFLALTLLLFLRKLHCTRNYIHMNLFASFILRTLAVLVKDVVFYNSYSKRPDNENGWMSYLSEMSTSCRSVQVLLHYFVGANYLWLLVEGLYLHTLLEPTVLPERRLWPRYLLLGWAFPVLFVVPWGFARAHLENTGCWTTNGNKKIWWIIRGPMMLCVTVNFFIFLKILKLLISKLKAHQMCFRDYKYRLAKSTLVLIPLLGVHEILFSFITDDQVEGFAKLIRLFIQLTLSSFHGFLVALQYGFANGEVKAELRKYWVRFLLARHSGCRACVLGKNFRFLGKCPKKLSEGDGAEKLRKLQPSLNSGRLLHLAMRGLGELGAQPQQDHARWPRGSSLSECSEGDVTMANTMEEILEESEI


Assays:
[1] = biological target: T1, human GLP-2 receptor (hGLP2-R); test: cell-based or functional assay
[2] = biological target: human glucagon-like peptide 1 receptor (GLP-1R) (human, UniProt P43220 24-463); test: cell-based or functional assay

Row | Binder | EC50 GLP-2 (nM); cAMP AlphaScreen, HEK293 cells expressing human GLP-2R [1] [nM] | EC50 GLP-1 (nM); cAMP AlphaScreen, HEK293 cells expressing human GLP-1R [2] [nM]
1 | H-HGEGTFTSELATILDEQAARDFIAWLIAHKITD-OH [Compound 38] | 0.043 | 0.008
2 | H-H[Aib]EGTFTSELATILDEQAARDFINWLKSYKITD-OH (SMILES CC[C@H](C)[C@H](NC(=O)[C@H](Cc1ccccc1)NC(=O)[C@H](CC(=O)O)NC(=O)[C@H](CCCNC(=N)N)NC(=O)[C@H](C)NC(=O)[C@H](C)NC(=O)[C@H](CCC(N)=O)NC(=O)[C@H](CCC(=O)O)NC(=O)[C@H](CC(=O)O)NC(=O)[C@H](CC(C)C)NC(=O)[C@@H](NC(=O)[C@@H](NC(=O)[C@H](C)NC(=O)[C@H](CC(C)C)NC(=O)[C@H](CCC(=O)O)NC(=O)[C@H](CO)NC(=O)[C@@H](NC(=O)[C@H](Cc1ccccc1)NC(=O)[C@@H](NC(=O)CNC(=O)[C@H](CCC(=O)O)NC(=O)C(C)(C)NC(=O)[C@@H](N)Cc1c[nH]cn1)[C@@H](C)O)[C@@H](C)O)[C@@H](C)O)[C@@H](C)CC)C(=O)N[C@@H](CC(N)=O)C(=O)N[C@@H](Cc1c[nH]c2ccccc12)C(=O)N[C@@H](CC(C)C)C(=O)N[C@@H](CCCCN)C(=O)N[C@@H](CO)C(=O)N[C@@H](Cc1ccc(O)cc1)C(=O)N[C@@H](CCCCN)C(=O)N[C@H](C(=O)N[C@H](C(=O)N[C@@H](CC(=O)O)C(=O)O)[C@@H](C)O)[C@@H](C)CC) [Compound 36] | 0.11 | 0.007
3 | H-H[Aib]EGTFTSELATILDEQAARDFINWLKAHKITD-OH (SMILES CC[C@H](C)[C@H](NC(=O)[C@H](Cc1ccccc1)NC(=O)[C@H](CC(=O)O)NC(=O)[C@H](CCCNC(=N)N)NC(=O)[C@H](C)NC(=O)[C@H](C)NC(=O)[C@H](CCC(N)=O)NC(=O)[C@H](CCC(=O)O)NC(=O)[C@H](CC(=O)O)NC(=O)[C@H](CC(C)C)NC(=O)[C@@H](NC(=O)[C@@H](NC(=O)[C@H](C)NC(=O)[C@H](CC(C)C)NC(=O)[C@H](CCC(=O)O)NC(=O)[C@H](CO)NC(=O)[C@@H](NC(=O)[C@H](Cc1ccccc1)NC(=O)[C@@H](NC(=O)CNC(=O)[C@H](CCC(=O)O)NC(=O)C(C)(C)NC(=O)[C@@H](N)Cc1c[nH]cn1)[C@@H](C)O)[C@@H](C)O)[C@@H](C)O)[C@@H](C)CC)C(=O)N[C@@H](CC(N)=O)C(=O)N[C@@H](Cc1c[nH]c2ccccc12)C(=O)N[C@@H](CC(C)C)C(=O)N[C@@H](CCCCN)C(=O)N[C@@H](C)C(=O)N[C@@H](Cc1c[nH]cn1)C(=O)N[C@@H](CCCCN)C(=O)N[C@H](C(=O)N[C@H](C(=O)N[C@@H](CC(=O)O)C(=O)O)[C@@H](C)O)[C@@H](C)CC) [Compound 35] | 0.048 | 0.006
4 | H-H[Aib]EGTFTSELATILDEQAARDFINWLKEQKITD-OH (SMILES CC[C@H](C)[C@H](NC(=O)[C@H](Cc1ccccc1)NC(=O)[C@H](CC(=O)O)NC(=O)[C@H](CCCNC(=N)N)NC(=O)[C@H](C)NC(=O)[C@H](C)NC(=O)[C@H](CCC(N)=O)NC(=O)[C@H](CCC(=O)O)NC(=O)[C@H](CC(=O)O)NC(=O)[C@H](CC(C)C)NC(=O)[C@@H](NC(=O)[C@@H](NC(=O)[C@H](C)NC(=O)[C@H](CC(C)C)NC(=O)[C@H](CCC(=O)O)NC(=O)[C@H](CO)NC(=O)[C@@H](NC(=O)[C@H](Cc1ccccc1)NC(=O)[C@@H](NC(=O)CNC(=O)[C@H](CCC(=O)O)NC(=O)C(C)(C)NC(=O)[C@@H](N)Cc1c[nH]cn1)[C@@H](C)O)[C@@H](C)O)[C@@H](C)O)[C@@H](C)CC)C(=O)N[C@@H](CC(N)=O)C(=O)N[C@@H](Cc1c[nH]c2ccccc12)C(=O)N[C@@H](CC(C)C)C(=O)N[C@@H](CCCCN)C(=O)N[C@@H](CCC(=O)O)C(=O)N[C@@H](CCC(N)=O)C(=O)N[C@@H](CCCCN)C(=O)N[C@H](C(=O)N[C@H](C(=O)N[C@@H](CC(=O)O)C(=O)O)[C@@H](C)O)[C@@H](C)CC) [Compound 37] | 0.16 | 0.007

Next, values leading:

Row | EC50 GLP-2 (nM); cAMP AlphaScreen, HEK293 cells expressing human GLP-2R [1] [nM] | EC50 GLP-1 (nM); cAMP AlphaScreen, HEK293 cells expressing human GLP-1R [2] [nM] | Binder
5 | 0.96 | 0.03 | H-H[Aib]EGTFSSELSTILEEQASREFIAWLIAHKITE-OH (SMILES CC[C@H](C)[C@H](NC(=O)[C@H](CC(C)C)NC(=O)[C@H](Cc1c[nH]c2ccccc12)NC(=O)[C@H](C)NC(=O)[C@@H](NC(=O)[C@H](Cc1ccccc1)NC(=O)[C@H](CCC(=O)O)NC(=O)[C@H](CCCNC(=N)N)NC(=O)[C@H](CO)NC(=O)[C@H](C)NC(=O)[C@H](CCC(N)=O)NC(=O)[C@H](CCC(=O)O)NC(=O)[C@H](CCC(=O)O)NC(=O)[C@H](CC(C)C)NC(=O)[C@@H](NC(=O)[C@@H](NC(=O)[C@H](CO)NC(=O)[C@H](CC(C)C)NC(=O)[C@H](CCC(=O)O)NC(=O)[C@H](CO)NC(=O)[C@H](CO)NC(=O)[C@H](Cc1ccccc1)NC(=O)[C@@H](NC(=O)CNC(=O)[C@H](CCC(=O)O)NC(=O)C(C)(C)NC(=O)[C@@H](N)Cc1c[nH]cn1)[C@@H](C)O)[C@@H](C)O)[C@@H](C)CC)[C@@H](C)CC)C(=O)N[C@@H](C)C(=O)N[C@@H](Cc1c[nH]cn1)C(=O)N[C@@H](CCCCN)C(=O)N[C@H](C(=O)N[C@H](C(=O)N[C@@H](CCC(=O)O)C(=O)O)[C@@H](C)O)[C@@H](C)CC) [Compound 39]
6 | 0.05 | 1.4 | H-HGEGSFSSELATILDEQAARDFIAWLIQHKITD-NH2 [Compound 40]
7 | 0.026 | 0.078 | H-H[Aib]EGSFSSELATILDEQAARDFIAWLIQHKITD-OH (SMILES CC[C@H](C)[C@H](NC(=O)[C@H](Cc1ccccc1)NC(=O)[C@H](CC(=O)O)NC(=O)[C@H](CCCNC(=N)N)NC(=O)[C@H](C)NC(=O)[C@H](C)NC(=O)[C@H](CCC(N)=O)NC(=O)[C@H](CCC(=O)O)NC(=O)[C@H](CC(=O)O)NC(=O)[C@H](CC(C)C)NC(=O)[C@@H](NC(=O)[C@@H](NC(=O)[C@H](C)NC(=O)[C@H](CC(C)C)NC(=O)[C@H](CCC(=O)O)NC(=O)[C@H](CO)NC(=O)[C@H](CO)NC(=O)[C@H](Cc1ccccc1)NC(=O)[C@H](CO)NC(=O)CNC(=O)[C@H](CCC(=O)O)NC(=O)C(C)(C)NC(=O)[C@@H](N)Cc1c[nH]cn1)[C@@H](C)O)[C@@H](C)CC)C(=O)N[C@@H](C)C(=O)N[C@@H](Cc1c[nH]c2ccccc12)C(=O)N[C@@H](CC(C)C)C(=O)N[C@H](C(=O)N[C@@H](CCC(N)=O)C(=O)N[C@@H](Cc1c[nH]cn1)C(=O)N[C@@H](CCCCN)C(=O)N[C@H](C(=O)N[C@H](C(=O)N[C@@H](CC(=O)O)C(=O)O)[C@@H](C)O)[C@@H](C)CC)[C@@H](C)CC) [Compound 41]
